Experimental data from US20110091971A1, “Differentiation of Pluripotent Stem Cells” (priority 2008, published 2011).

Tested on: Human Embryonic Stem Cells (H1 hESC line)
Assay: RT-PCR of pancreatic differentiation markers at conclusion of step four of differentiation (Example 12)
Type: cell-based
Conditions: end of step four; relative to commercial activin A or ACTN1
Description: Step 4 of the differentiation protocol was carried out over three days. Cells were fed daily by aspirating the medium from each well and replacing with a fresh aliquot (0.5 ml) of DMEM-high glucose supplemented with 1% B27, 100 ng/ml Noggin, 100 ng/ml Netrin-4 (R&D Systems; Cat #), 1 μM DAPT, and 1 μM Alk 5 inhibitor (Axxora; Cat #ALX-270-445). At the conclusion of the fourth step of differentiation, cells from some wells were harvested for analysis by RT-PCR to measure markers of differentiation.
RT-PCR Analysis: RNA samples were purified by binding to a silica-gel membrane (Rneasy Mini Kit, Qiagen, CA) in the presence of an ethanol-containing, high-salt buffer followed by washing to remove contaminants. The RNA was further purified using a TURBO DNA-free kit (Ambion, INC), and high-quality RNA was then eluted in water. Yield and purity were assessed by A260 and A280 readings on a spectrophotometer. […]
Unless otherwise stated, all reagents were purchased from Applied Biosystems. […] For each primer/probe set, a Ct value was determined as the cycle number at which the fluorescence intensity reached a specific value in the middle of the exponential region of amplification. Relative gene expression levels were calculated using the comparative Ct method. […] The normalized amount of target was calculated as 2-ΔCt, assuming amplification to be 100% efficiency. […]

Molecule	expression of downstream pancreatic differentiation markers (RT-PCR)
ACTN4: activin A variant peptide, SEQ ID 5 (protein) GLECDGKVNLCCKKQLFVSFKDIGWNDWIIAPSGYHANHCSGLCPSHIAGTSGSSLSFHSTVINHYRMRGHSPFSDMGACCVPTKLRPMSMLYYDDGQNIIKKDIQNMIVEECGCS	comparable expression
ACTN48: activin A variant peptide, SEQ ID 49 (protein) GLECDGKVNLCCKKQNFVSFKDIGWNDWIIAPSGYHANECSGLCPSHIAGTSGSSLSFHSTVINHYRMRGHSPFANMGACCIPTKLRPMSMLYYDDGQNIIKKDIQNMIVEECGCS	comparable expression
